Values belong to the binder of their own block, whether it stands above or below them.
Key:
[1] = target: hVISTA-ECD (human); experiment: SPR pH 7.4, 37C
[2] = target: hVISTA-ECD (human); experiment: SPR pH 6.0, 37C
[3] = target: hVISTA-ECD (human); experiment: SPR pH 7.4, low or no binding
[4] = target: hVISTA-ECD (human); experiment: SPR pH 6.0
[5] = target: hVISTA-ECD (human); experiment: SPR pH 6.9
[6] = target: hVISTA-ECD (human); experiment: SPR pH 6.45
[7] = target: hVISTA-ECD (human); experiment: SPR pH 7.4, 37C; remark: listed apart in the source
[8] = target: hVISTA-ECD (human); experiment: SPR pH 6.9, 37C
[9] = target: hVISTA-ECD (human); experiment: SPR pH 7.4, 37C; remark: listed apart in the source
[10] = target: hVISTA-ECD (human); experiment: SPR pH 6.0, 37C; remark: listed apart in the source
[11] = target: hVISTA-ECD (human); experiment: SPR pH 6.0, 37C; remark: listed apart in the source
[12] = target: hVISTA-ECD (human); experiment: SPR pH 6.0, 37C; remark: listed apart in the source
[13] = target: hVISTA-ECD (human); experiment: SPR pH 6.45, 37C
[14] = target: hVISTA-ECD (human); experiment: SPR pH 7.4, 37C; remark: listed apart in the source
[15] = target: hVISTA-ECD (human); experiment: SPR pH 6.9, low or no binding
[16] = target: hVISTA-ECD (human); experiment: SPR pH 6.45, low or no binding

Sequence of hVISTA-ECD (human) (chain, as listed by the source): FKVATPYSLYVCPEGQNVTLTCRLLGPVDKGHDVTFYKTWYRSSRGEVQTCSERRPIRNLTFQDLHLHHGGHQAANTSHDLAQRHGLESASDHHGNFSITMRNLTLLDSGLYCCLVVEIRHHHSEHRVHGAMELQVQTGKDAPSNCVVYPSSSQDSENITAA

binding result [1]: no binding
B1: P1-068748 (antibody, V domains shown)
VH: QVQLVESGGGVVQPGRSLRLSCAASGFTFSHHAMHWVRQAPGKGLEWVAIIWYDGSNDDYADSVKGRFTISRDNSKNTLYLQMNSLRAEDTAVYYCARDSGFYDSYYFDYWGQGTLVTVSS
VL: EIVLTQSPATLSLSPGERATLSCRASQSVSSSYLAWYQQKPGQAPRLLIYDASNRATGIPARFSGSGSGTDFTLTISSLEPEDFATYYCQQYNSYPYTFGQGTKLEIK

koff [2]: > 0.01 s⁻¹
B2: P1-068746 (antibody, V domains shown)
VH: QVQLVESGGGVVQPGRSLRLSCAASGFTFSSYAMHWVRQAPGKGLEWVAIIWYDGSNHHYADSVKGRFTISRDNSKNTLYLQMNSLRAEDTAVYYCARDSGFYDSYYFDYWGQGTLVTVSS
VL: EIVLTQSPATLSLSPGERATLSCRASQSVSSSYLAWYQQKPGQAPRLLIYDASNRATGIPARFSGSGSGTDFTLTISSLEPEDFATYYCQQYNSYPYTFGQGTKLEIK

koff [2]: > 0.01 s⁻¹
B3: P1-068742 (antibody, V domains shown)
VH: QVQLVESGGGVVQPGRSLRLSCAASGFTFSDYAMHWVRQAPGKGLEWVAIIWYDGSDKDYADSVKGRFTISRDNSKNTLYLQMNSLRAEDTAVYYCARDSGFYEDYYFDYWGQGTLVTVSS
VL: EIVLTQSPATLSLSPGERATLSCRASQSVSSSYLAWYQQKPGQAPRLLIYDASNRATGIPARFSGSGSGTDFTLTISSLEPEDFATYYCQQYNSYPYTFGQGTKLEIK

binding result [3]: no binding
B4: P1-068744 (antibody, V domains shown)
VH: QVQLVESGGGVVQPGRSLRLSCAASGFTFSEYAMHWVRQAPGKGLEWVAHIWYDGSNKYEADSVKGRFTISRDNSKNTLYLQMNSLRAEDTAVYYCARDSGFYESYYFDEWGQGTLVTVSS
VL: EIVLTQSPATLSLSPGERATLSCRASQSVSSSYLAWYQQKPGQAPRLLIYDASNRATGIPARFSGSGSGTDFTLTISSLEPEDFATYYCQQYNSYPYTFGQGTKLEIK

Kd [4]: 6.78 nM
Kd [5]: 385 nM
Kd [6]: 31.8 nM
Kd [7]: 19000 nM
Kd [8]: 400 nM
Kd [9]: 19000 nM
Kd [10]: 7.8 nM
Kd [11]: 7.6 nM
Kd [12]: 3.4 nM
Kd [13]: 38 nM
binding result [3]: no binding
B5: P1-068767 (antibody, V domains shown)
VH: EVQLVESGGGLVQPGKSLRLSCAASGFTLEDYAMHWVRQAPGKGLEWVSGIDWNSENIGYADSVKGRFTISRDNAKNSLYLQMNSLRTEDTALYYCAKVPGYSGGWIDAEDDWGQGTMVTVSS
VL: not shown

Kd [9]: 41 nM
Kd [10]: 6.9 nM
B6: P1-061029 hIgG1f afucosylated (antibody, V domains shown)
VH: EVQLVESGGGLVQPGKSLRLSCAASGFTLDDYAMHWVRQAPGKGLEWVSGINWNSANIGYADSVKGRFTISRDNAKNSLYLQMNSLRTEDTALYYCAKVPGYSGGWIDAFDVWGQGTMVTVSS
VL: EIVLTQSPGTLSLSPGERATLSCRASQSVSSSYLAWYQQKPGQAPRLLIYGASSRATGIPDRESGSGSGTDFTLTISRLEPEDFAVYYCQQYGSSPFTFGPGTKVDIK

binding result [3]: no binding
B7: P1-070870 (P1-068761_E56N) (antibody, V domains shown)
VH: EVQLVESGGGLVQPGKSLRLSCAASGFTLEDEAMHWVRQAPGKGLEWVSGINWNSENIGYADSVKGRFTISRDNAKNSLYLQMNSLRTEDTALYYCAKVPGYSHGWIDAEDVWGQGTMVTVSS
VL: not shown

binding result [3]: no binding
B8: P1-070864 (P1-068761_E30D) (antibody, V domains shown)
VH: EVQLVESGGGLVQPGKSLRLSCAASGFTLDDEAMHWVRQAPGKGLEWVSGINWNSEEIGYADSVKGRFTISRDNAKNSLYLQMNSLRTEDTALYYCAKVPGYSHGWIDAEDVWGQGTMVTVSS
VL: not shown

binding result [3]: no binding
B9: P1-068761 (antibody, V domains shown)
VH: EVQLVESGGGLVQPGKSLRLSCAASGFTLEDEAMHWVRQAPGKGLEWVSGINWNSEEIGYADSVKGRFTISRDNAKNSLYLQMNSLRTEDTALYYCAKVPGYSHGWIDAEDVWGQGTMVTVSS
VL: not shown

binding result [14]: no binding
B10: P1-068769 (antibody, V domains shown)
VH: EVQLVESGGGLVQPGKSLRLSCAASGFTLEDEAMHWVRQAPGKGLEWVSGINWNSDHIGYADSVKGRFTISRDNAKNSLYLQMNSLRTEDTALYYCAKVPGYSGGWIDAEDDWGQGTMVTVSS
VL: not shown

binding result [3]: no binding
B11: P1-070890 (P1-068761_E30D_E55A) (antibody, V domains shown)
VH: EVQLVESGGGLVQPGKSLRLSCAASGFTLDDEAMHWVRQAPGKGLEWVSGINWNSAEIGYADSVKGRFTISRDNAKNSLYLQMNSLRTEDTALYYCAKVPGYSHGWIDAEDVWGQGTMVTVSS
VL: not shown

Kd [9]: 8200 nM
Kd [10]: 4.1 nM
B12: P1-068761 hIgG1f afucosylated (antibody, V domains shown)
VH: EVQLVESGGGLVQPGKSLRLSCAASGFTLEDEAMHWVRQAPGKGLEWVSGINWNSEEIGYADSVKGRFTISRDNAKNSLYLQMNSLRTEDTALYYCAKVPGYSHGWIDAEDVWGQGTMVTVSS
VL: not shown

binding result [3]: no binding
B13: P1-070922 (P1-068767_E30D_E55A) (antibody, V domains shown)
VH: EVQLVESGGGLVQPGKSLRLSCAASGFTLDDYAMHWVRQAPGKGLEWVSGIDWNSANIGYADSVKGRFTISRDNAKNSLYLQMNSLRTEDTALYYCAKVPGYSGGWIDAEDDWGQGTMVTVSS
VL: not shown

binding result [14]: no binding
B14: P1-068775 (antibody, V domains shown)
VH: EVQLVESGGGLVQPGKSLRLSCAASGFTLEDEAMHWVRQAPGKGLEWVSGIDWNSEEIGYADSVKGRFTISRDNAKNSLYLQMNSLRTEDTALYYCAKVPGYSHGWIDAEDDWGQGTMVTVSS
VL: not shown

binding result [15]: no binding
B15: P1-068757 (antibody, V domains shown)
VH: EVQLVESGGGLVQPGKSLRLSCAASGFTLEDEAMHWVRQAPGKGLEWVSGINWNSEEIGYADSVKGRFTISRDNAKNSLYLQMNSLRTEDTALYYCAKVPGYSGGWIDAEDDWGQGTMVTVSS
VL: not shown

binding result [3]: no binding
B16: P1-070900 (P1-068761_E56N_H100G) (antibody, V domains shown)
VH: EVQLVESGGGLVQPGKSLRLSCAASGFTLEDEAMHWVRQAPGKGLEWVSGINWNSENIGYADSVKGRFTISRDNAKNSLYLQMNSLRTEDTALYYCAKVPGYSGGWIDAEDVWGQGTMVTVSS
VL: not shown

binding result [3]: no binding
B17: P1-068765 (antibody, V domains shown)
VH: EVQLVESGGGLVQPGKSLRLSCAASGFTDEDYAMHWVRQAPGKGLEWVSGINWNSEEIGYADSVKGRFTISRDNAKNSLYLQMNSLRTEDTALYYCAKVPGYSGGWIDAEDDWGQGTMVTVSS
VL: not shown

binding result [14]: no binding
B18: P1-068771 (antibody, V domains shown)
VH: EVQLVESGGGLVQPGKSLRLSCAASGFTLEDEAMHWVRQAPGKGLEWVSGINWNSHEIGYADSVKGRFTISRDNAKNSLYLQMNSLRTEDTALYYCAKVPGYSGGWIDAEDDWGQGTMVTVSS
VL: not shown

binding result [3]: no binding
B19: P1-070872 (P1-068761_H100G) (antibody, V domains shown)
VH: EVQLVESGGGLVQPGKSLRLSCAASGFTLEDEAMHWVRQAPGKGLEWVSGINWNSEEIGYADSVKGRFTISRDNAKNSLYLQMNSLRTEDTALYYCAKVPGYSGGWIDAEDVWGQGTMVTVSS
VL: not shown

Kd [9]: 22000 nM
Kd [10]: 8 nM
B20: P1-068767 hIgG1f (antibody, V domains shown)
VH: EVQLVESGGGLVQPGKSLRLSCAASGFTLEDYAMHWVRQAPGKGLEWVSGIDWNSENIGYADSVKGRFTISRDNAKNSLYLQMNSLRTEDTALYYCAKVPGYSGGWIDAEDDWGQGTMVTVSS
VL: not shown

Kd [11]: 9.4 nM
B21: P1-068773 (antibody, V domains shown)
VH: EVQLVESGGGLVQPGKSLRLSCAASGFTLEDYAMHWVRQAPGKGLEWVSGIDWNSDNIGYADSVKGRFTISRDNAKNSLYLQMNSLRTEDTALYYCAKVPGYSGGWIDAEDDWGQGTMVTVSS
VL: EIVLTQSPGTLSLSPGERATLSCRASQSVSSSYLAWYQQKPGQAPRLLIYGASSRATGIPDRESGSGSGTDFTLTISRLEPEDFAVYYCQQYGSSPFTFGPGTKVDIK

binding result [16]: no binding
B22: P1-068759 (antibody, V domains shown)
VH: EVQLVESGGGLVQPGKSLRLSCAASGFTLEDEAMHWVRQAPGKGLEWVSGIDWNSENIGYADSVKGRFTISRDNAKNSLYLQMNSLRTEDTALYYCAKVPGYSGGWIDAEDDWGQGTMVTVSS
VL: not shown

binding result [3]: no binding
B23: P1-070904 (P1-068767_E30D) (antibody, V domains shown)
VH: EVQLVESGGGLVQPGKSLRLSCAASGFTLDDYAMHWVRQAPGKGLEWVSGIDWNSENIGYADSVKGRFTISRDNAKNSLYLQMNSLRTEDTALYYCAKVPGYSGGWIDAEDDWGQGTMVTVSS
VL: not shown

binding result [3]: no binding
B24: P1-070878 (P1-068761_E55A_E56N) (antibody, V domains shown)
VH: EVQLVESGGGLVQPGKSLRLSCAASGFTLEDEAMHWVRQAPGKGLEWVSGINWNSANIGYADSVKGRFTISRDNAKNSLYLQMNSLRTEDTALYYCAKVPGYSHGWIDAEDVWGQGTMVTVSS
VL: not shown

Kd [9]: 24000 nM
Kd [10]: 7.9 nM
B25: P1-068767 hIgG1f afucosylated (antibody, V domains shown)
VH: EVQLVESGGGLVQPGKSLRLSCAASGFTLEDYAMHWVRQAPGKGLEWVSGIDWNSENIGYADSVKGRFTISRDNAKNSLYLQMNSLRTEDTALYYCAKVPGYSGGWIDAEDDWGQGTMVTVSS
VL: not shown

From US12735488 (dated 2026)
